Source: publication PMC6506533, “Initial state of DNA-Dye complex sets the stage for protein induced fluorescence modulation”

Molecular target: FEN1 (human, UniProt P39748 1-380)
Assay: fluorescence anisotropy; rotational correlation time decreases on binding; RPA reaction buffer with 50 mM KCl or FEN1 reaction buffer (full composition not in material); steady-state measurements at room temperature; proteins in excess over Kd (Kd stated only as low nM)
Details: protein: recombinant; tags: none left (His6-SUMO cleaved); label: 5' flap tip pCy3; nicked double flap: 3 strands, 5' flap 4 nt, 3' flap 1 nt

Sequence of FEN1 (P39748 whole entry): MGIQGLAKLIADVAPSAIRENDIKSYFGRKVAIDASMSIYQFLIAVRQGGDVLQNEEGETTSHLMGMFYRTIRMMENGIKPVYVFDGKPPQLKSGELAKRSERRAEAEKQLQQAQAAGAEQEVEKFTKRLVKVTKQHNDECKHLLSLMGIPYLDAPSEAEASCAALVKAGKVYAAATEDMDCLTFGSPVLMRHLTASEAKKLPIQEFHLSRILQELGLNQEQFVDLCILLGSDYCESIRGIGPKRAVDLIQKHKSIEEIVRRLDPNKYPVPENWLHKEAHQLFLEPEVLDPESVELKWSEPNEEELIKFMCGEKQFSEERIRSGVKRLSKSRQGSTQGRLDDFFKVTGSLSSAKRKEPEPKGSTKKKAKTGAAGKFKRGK

B1: DF-4,1 pCy3 (structured_DNA)
DNA 1: GATGACGAGCAGTCCTAACTGGAAATCTAGCTCTGTGGAG
DNA 2: CTCCACAGAGCTAGATTTCCC
DNA 3: TTTAAGTTAGGACTGCTCGTCATC
B1: binds.
